We go through 16 molecules from patent US20180186873A1 (CEPHALON, published 2018).

Numbering of substitutions follows the chain as printed. “And” between values parts separate entries of the source, which are not always exact repeats. Identical values can stand only once.

For assay [1], the target named is T1, recombinant human IL-5 (human, UniProt P05113 20-134). The assay is described as follows: SPR, Ab supernatant on Protein A chip, IL-5 analyte, run 3.2, average of 5. In general terms: In SPR one partner is held on a chip, and binding of the other changes the refractive index at the surface.
Assay [2] addresses T1, recombinant human IL-5. The experiment in a line: SPR, purified Ab on Protein A chip, IL-5 analyte, run 3.2.
Assay [3] addresses T2, recombinant human IL-5 (human, UniProt P05113 20-134). The assay is described as follows: SPR Biacore, Ab on Protein A chip, human IL-5 analyte, run 4.1, replicate 5.
Assay [4] has as its target T2, recombinant human IL-5. The assay is described as follows: SPR Biacore, Ab on Protein A chip, human IL-5 analyte, run 4.1, replicate 3.
Assay [5] deals with T2, recombinant human IL-5. The experiment in a line: SPR Biacore, Ab on Protein A chip, human IL-5 analyte, run 4.1, replicate 2.
The target in assay [6] is T2, recombinant human IL-5. The experiment in a line: SPR Biacore, Ab on Protein A chip, human IL-5 analyte, run 4.1, average.
The target of assay [7] is T2, recombinant human IL-5. The assay is described as follows: SPR Biacore, purified Ab on Protein A chip, human IL-5 analyte, run 4.1.
The target of assay [8] is T2, recombinant human IL-5. The experiment in a line: SPR Biacore, Ab on Protein A chip, human IL-5 analyte, run 4.1, replicate 4.
In assay [9] the target is T2, recombinant human IL-5. The experiment in a line: SPR Biacore, Ab on Protein A chip, human IL-5 analyte, run 4.1, replicate 1.
The target in assay [10] is T3, recombinant human IL-5 (human, UniProt P05113 20-134). The assay is described as follows: Biacore SPR run 5.1.
Assay [11] has as its target T3, recombinant human IL-5. The experiment in a line: Biacore SPR run 5.1. The source holds these as a separate data set.
The target of assay [12] is T3, recombinant human IL-5. The experiment in a line: Biacore SPR run 5.1. This is another data set of the same source.
For assay [13], the target named is T4, recombinant human IL-5 (human, UniProt P05113 20-134). The experiment in a line: Biacore SPR, purified Ab on Protein A chip.
For assay [14], the target named is T4, recombinant human IL-5. The experiment in a line: Biacore SPR, Ab supernatant on Protein A chip, average of replicates.
Assay [15] deals with T4, recombinant human IL-5. The assay is described as follows: Biacore SPR, Ab supernatant on Protein A chip.
The target of assay [16] is T5, recombinant human IL-5 (human, UniProt P05113 20-134). The experiment in a line: SPR.
Assay [17] deals with T5, recombinant human IL-5. The experiment in a line: SPR. This is another data set of the same source.
Assay [18] has as its target T5, recombinant human IL-5. The assay is described as follows: SPR. The source holds these as a separate data set.
The target of assay [19] is T5, recombinant human IL-5. The experiment in a line: SPR. This is another data set of the same source.
Assay [20] addresses T5, recombinant human IL-5. The assay is described as follows: SPR. The source holds these as a separate data set.
For assay [21], the target named is T5, recombinant human IL-5. The experiment in a line: SPR. The source holds these as a separate data set.
Assay [22] deals with T5, recombinant human IL-5. The assay is described as follows: SPR. The source holds these as a separate data set.

B1: 3A5.040 (antibody, human IgG4 S228P, lambda)
heavy: not shown
light: SYVLTQPPSVSVAPGQTARITCGGNNIGSKNVYWYQQKPGQAPVLVVHDDSDRPSGIPERFSGSNSGNTATLTISRVEVGDEADYSCQVWDSSSDHVVFGGGTKLTVLGQPKAAPSVTLFPPSSEELQANKATLVCLISDFYPGAVTVAWKADSSPVKAGVETTTPSKQSNNKYAASSYLSLTPEQWKSHRSYSCQVTHEGSTVEKTVAPTECS
The Kd is the concentration at which binding is half-saturated. What is called koff is a measure of how fast the partners let go of each other. As usually defined, the kon is a measure of how fast the partners come together. Take B1: in the assay with recombinant human IL-5 [1], the Kd is 131 pM, the koff is 9.07e-05 s⁻¹ and the kon is 695000 M⁻¹ s⁻¹. In the assay with recombinant human IL-5 [2], the Kd turned out to be 116 pM, the koff worked out at 8.25e-05 s⁻¹ and the kon was determined as 712000 M⁻¹ s⁻¹.

B2: 3A5.040 (antibody, human IgG4 S228P, lambda)
heavy: not shown
light: B1 light
As for B2, the Kd turned out to be 93.7 pM with recombinant human IL-5 [3]; 109 pM in the assay with recombinant human IL-5 [4]; 104 pM with recombinant human IL-5 [5]; 106 pM with recombinant human IL-5 [6]; 103 pM with recombinant human IL-5 [7]; 105 pM in the assay with recombinant human IL-5 [8]. Also, the Kd with recombinant human IL-5 [9] came out at 116 pM. Moreover, the koff in the assay with recombinant human IL-5 [3] turned out to be 9.29e-05 s⁻¹; in the assay with recombinant human IL-5 [4] it was 0.000112 s⁻¹; with recombinant human IL-5 [5], 0.000107 s⁻¹; with recombinant human IL-5 [6], 0.000107 s⁻¹; in the assay with recombinant human IL-5 [7], 0.000109 s⁻¹; with recombinant human IL-5 [8], 0.000106 s⁻¹. For the same molecule, in the assay with recombinant human IL-5 [9], the koff was 0.000116 s⁻¹. Besides, the kon with recombinant human IL-5 [3] was determined as 991000 M⁻¹ s⁻¹; in the assay with recombinant human IL-5 [4], 1.03e+06 M⁻¹ s⁻¹; with recombinant human IL-5 [5] it was 1.02e+06 M⁻¹ s⁻¹; with recombinant human IL-5 [6] it was 1.01e+06 M⁻¹ s⁻¹; in the assay with recombinant human IL-5 [7] it was 1.06e+06 M⁻¹ s⁻¹; with recombinant human IL-5 [8], 1.01e+06 M⁻¹ s⁻¹. Moreover, the kon in the assay with recombinant human IL-5 [9] was 1e+06 M⁻¹ s⁻¹.

B3: 3A5.040 (antibody, human IgG4 S228P, lambda)
heavy: not shown
light: B1 light
For the molecule B3, in the assay with recombinant human IL-5 [10], the Kd was 181 pM, the off-rate (koff) was determined as 0.000119 s⁻¹ and the kon was 657000 M⁻¹ s⁻¹. Besides, in the assay with recombinant human IL-5 [11], the equilibrium dissociation constant (Kd) is 186 pM and 175 pM and 187 pM and 177 pM; the koff was 0.000122 s⁻¹ and 0.000112 s⁻¹ and 0.000125 s⁻¹ and 0.000117 s⁻¹; the kon was 656000 M⁻¹ s⁻¹ and 643000 M⁻¹ s⁻¹ and 667000 M⁻¹ s⁻¹ and 663000 M⁻¹ s⁻¹. In addition, in the assay with recombinant human IL-5 [12], the Kd was found to be 153 pM, the koff is 0.000108 s⁻¹ and the kon was determined as 707000 M⁻¹ s⁻¹.

B4: 3A5.040 (antibody, human IgG4 S228P, lambda)
heavy: not shown
light: B1 light
Regarding B4, the Kd was 92 pM with recombinant human IL-5 [13]; 149 pM with recombinant human IL-5 [14]; 148 pM and 149 pM with recombinant human IL-5 [15]. Besides, the koff is 6.63e-05 s⁻¹ with recombinant human IL-5 [13]; 0.000105 s⁻¹ with recombinant human IL-5 [14]; 0.000103 s⁻¹ and 0.000106 s⁻¹ with recombinant human IL-5 [15]. In addition, the kon is 721000 M⁻¹ s⁻¹ in the assay with recombinant human IL-5 [13]; 703000 M⁻¹ s⁻¹ with recombinant human IL-5 [14]; 696000 M⁻¹ s⁻¹ and 710000 M⁻¹ s⁻¹ in the assay with recombinant human IL-5 [15].

B5: 3A5.040 (antibody, human IgG4 S228P, lambda)
heavy: not shown
light: B1 light
For B5, the Kd in the assay with recombinant human IL-5 [16] was determined as 128 pM; in the assay with recombinant human IL-5 [17] it was 148 pM; with recombinant human IL-5 [18] it was 139 pM; in the assay with recombinant human IL-5 [19], 123 pM; in the assay with recombinant human IL-5 [20], 160 pM; in the assay with recombinant human IL-5 [21], 143 pM. Also, the koff in the assay with recombinant human IL-5 [16] was 9.21e-05 s⁻¹; in the assay with recombinant human IL-5 [17], 0.000106 s⁻¹; in the assay with recombinant human IL-5 [18] it was 9.91e-05 s⁻¹; with recombinant human IL-5 [19], 8.96e-05 s⁻¹; with recombinant human IL-5 [20], 0.000115 s⁻¹; with recombinant human IL-5 [21] it was 9.95e-05 s⁻¹. The kon in the assay with recombinant human IL-5 [16] turned out to be 718000 M⁻¹ s⁻¹; with recombinant human IL-5 [17] it was 717000 M⁻¹ s⁻¹; with recombinant human IL-5 [18] it was 715000 M⁻¹ s⁻¹; with recombinant human IL-5 [19], 727000 M⁻¹ s⁻¹; in the assay with recombinant human IL-5 [20], 720000 M⁻¹ s⁻¹; in the assay with recombinant human IL-5 [21], 696000 M⁻¹ s⁻¹.

B6: 3A5.497 (antibody, human IgG4 S228P, lambda, name in Kabat numbering, V domains shown)
VH: QVQLQESGPGLVKPSQTLSLTCTVSGGSISNGGYYWSWIRQHPGKGLEWIGYIYYSGSTYYNPSLKSRVTISVDTSKNQFSLKLSSVTAADTAVYYCAWLGNWFDYWGQGTLVTVSS
VL: SYVLTQPPSVSVAPGQTARITCGGNNIGSKNVYWYQQKPGQAPVLVVHDDSDRPSGIPERFSGSNSGNTATLTISRVEVGDEADYSCQVWDSSSDHVVFGGGTKLTVLG
In the case of B6, in the assay with recombinant human IL-5 [22], the “% 3A5.040 kd” value stood at 3% and the Kd came out at 1750 pM.

B7: 3A5.492 (antibody, human IgG4 S228P, lambda, name in Kabat numbering, V domains shown)
VH: B6 VH with W99Y
VL: B6 VL
For B7, in the assay with recombinant human IL-5 [15], the “% 3A5.040 kd” value is 10% and the equilibrium dissociation constant (Kd) was determined as 3370 pM.

B8: 3A5.482 (antibody, human IgG4 S228P, lambda, name in Kabat numbering, V domains shown)
VH: B6 VH with A98L, W99S
VL: B6 VL
Turning to B8, in the assay with recombinant human IL-5 [15], the “% 3A5.040 kd” value came to 52% and the Kd came out at 790 pM.

B9: 3A5.498 (antibody, human IgG4 S228P, lambda, name in Kabat numbering, V domains shown)
VH: B6 VH with W99P
VL: B6 VL
As for B9, in the assay with recombinant human IL-5 [22], the “% 3A5.040 kd” value came out at 85% and the Kd was found to be 263 pM.

B10: 3A5.485 (antibody, human IgG4 S228P, lambda, name in Kabat numbering, V domains shown)
VH: B6 VH with A98Q, W99S
VL: B6 VL
As to B10, in the assay with recombinant human IL-5 [15], the “% 3A5.040 kd” value was found to be 105% and the Kd is 154 pM.

B11: 3A5.491 (antibody, human IgG4 S228P, lambda, name in Kabat numbering, V domains shown)
VH: B6 VH with W99L
VL: B6 VL
Consider B11, for which, in the assay with recombinant human IL-5 [15], the “% 3A5.040 kd” value came out at 13% and the dissociation constant (Kd) came to 1520 pM.

B12: 3A5.494 (antibody, human IgG4 S228P, lambda, name in Kabat numbering, V domains shown)
VH: B6 VH with W99Q
VL: B6 VL
As to B12, in the assay with recombinant human IL-5 [15], the “% 3A5.040 kd” value stood at 16% and the Kd came out at 945 pM.

B13: 3A5.490 (antibody, human IgG4 S228P, lambda, name in Kabat numbering, V domains shown)
VH: B6 VH with W99A
VL: B6 VL
Turning to B13, the Kd with recombinant human IL-5 [15] was determined as 128 pM.

B14: 3A5.481 (antibody, human IgG4 S228P, lambda, name in Kabat numbering, V domains shown)
VH: B6 VH with A98S, W99S
VL: B6 VL
With B14, in the assay with recombinant human IL-5 [15], the “% 3A5.040 kd” value was found to be 112% and the Kd was found to be 130 pM.

B15: 3A5.495 (antibody, human IgG4 S228P, lambda, name in Kabat numbering, V domains shown)
VH: B6 VH with W99K
VL: B6 VL
As to B15, in the assay with recombinant human IL-5 [22], the “% 3A5.040 kd” value is 34% and the dissociation constant Kd was 431 pM.

B16: 3A5.496 (antibody, human IgG4 S228P, lambda, name in Kabat numbering, V domains shown)
VH: B6 VH with W99H
VL: B6 VL
As to B16, in the assay with recombinant human IL-5 [15], the “% 3A5.040 kd” value came out at 2% and the Kd worked out at 2110 pM.
